Results as given in patent publication US20170313764A1 (ACADEMISCH MEDISCH CENTRUM, published 2017).

Columns and labels:
[1] = molecular target: E1E2 of HCV isolate H77 with single mutation G418A (Hepatitis C virus genotype 1a, strain …, UniProt P27958 192-383; P27958 384-746); experiment: ELISA, GNA-captured E1E2 lysate; EC50 wild type / EC50 mutant
[2] = molecular target: E1E2 of HCV isolate H77 with single mutation W420A (Hepatitis C virus genotype 1a, strain …, UniProt P27958 192-383; P27958 384-746); experiment: as above
[3] = molecular target: E1E2 of HCV isolate H77 with single mutation L413A (Hepatitis C virus genotype 1a, strain …, UniProt P27958 192-383; P27958 384-746); experiment: as above
[4] = molecular target: E1E2 of HCV isolate AMS.2b.20876551.kloon21 (genotype 2b) (Hepatitis C virus genotype 2b); experiment: cell-based or functional assay
[5] = molecular target: E1E2 of HCV isolate UKN4.11.1 (genotype 4) (Hepatitis C virus genotype 4); experiment: cell-based or functional assay
[6] = molecular target: E1E2 of HCV isolate AMS.4d.20875969 (genotype 4d) (Hepatitis C virus genotype 4d); experiment: cell-based or functional assay
[7] = molecular target: E1E2 of HCV isolate AMS.1b.20877857 (genotype 1b) (Hepatitis C virus genotype 1b); experiment: cell-based or functional assay
[8] = molecular target: E1E2 of HCV isolate H77 (genotype 1a), wild type (Hepatitis C virus genotype 1a, strain …, UniProt P27958 192-383; P27958 384-746); experiment: cell-based or functional assay
[9] = molecular target: E1E2 of HCV isolate AMS.3a.21071213 (genotype 3a) (Hepatitis C virus genotype 3a); experiment: cell-based or functional assay
[10] = molecular target: T1, soluble E2-his6-sortase tag from HCV isolate H77 (genotype 1a) (Hepatitis C virus genotype 1a, strain …, UniProt P27958 384-717); experiment: SPR (IBIS MX96), antibody spotted on chip, soluble E2-his as analyte
T1 construct: also called E2-his6-ST; E2 genotype 1a

[11] = molecular target: T2, soluble E2-his6-sortase tag from HCV isolate AMS.2b.20876551.kloon21 (genotype 2b) (Hepatitis C virus genotype 2b); experiment: as above
T2 chain: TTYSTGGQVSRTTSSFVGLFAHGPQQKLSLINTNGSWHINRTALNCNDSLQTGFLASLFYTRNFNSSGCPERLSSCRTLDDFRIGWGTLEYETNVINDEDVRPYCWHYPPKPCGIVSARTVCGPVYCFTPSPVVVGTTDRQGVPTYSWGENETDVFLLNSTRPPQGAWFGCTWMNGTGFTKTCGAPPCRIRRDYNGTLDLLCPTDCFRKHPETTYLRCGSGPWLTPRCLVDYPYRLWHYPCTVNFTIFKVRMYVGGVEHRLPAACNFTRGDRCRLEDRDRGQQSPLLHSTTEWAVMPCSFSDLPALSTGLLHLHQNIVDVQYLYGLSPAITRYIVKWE

[12] = molecular target: E1E2 of HCV isolate H77 with single mutation L441A (Hepatitis C virus genotype 1a, strain …, UniProt P27958 192-383; P27958 384-746); experiment: ELISA, GNA-captured E1E2 lysate; EC50 wild type / EC50 mutant
[13] = molecular target: E1E2 of HCV isolate H77 with single mutation N209A (in E1) (Hepatitis C virus genotype 1a, strain …, UniProt P27958 192-383; P27958 384-746); experiment: as above
[14] = molecular target: E1E2 of HCV isolate H77 with single mutation F442A (Hepatitis C virus genotype 1a, strain …, UniProt P27958 192-383; P27958 384-746); experiment: as above
[15] = molecular target: E1E2 of HCV isolate H77 with single mutation N325A (in E1) (Hepatitis C virus genotype 1a, strain …, UniProt P27958 192-383; P27958 384-746); experiment: as above
[16] = molecular target: E1E2 of HCV isolate H77 with single mutation T526A (Hepatitis C virus genotype 1a, strain …, UniProt P27958 192-383; P27958 384-746); experiment: as above
[17] = molecular target: E1E2 of HCV isolate H77 with single mutation G530A (Hepatitis C virus genotype 1a, strain …, UniProt P27958 192-383; P27958 384-746); experiment: as above
[18] = molecular target: E1E2 of HCV isolate H77 with single mutation S424A (Hepatitis C virus genotype 1a, strain …, UniProt P27958 192-383; P27958 384-746); experiment: as above
[19] = molecular target: E1E2 of HCV isolate H77 with single mutation G436A (Hepatitis C virus genotype 1a, strain …, UniProt P27958 192-383; P27958 384-746); experiment: as above
[20] = molecular target: E1E2 of HCV isolate H77 with single mutation W529A (Hepatitis C virus genotype 1a, strain …, UniProt P27958 192-383; P27958 384-746); experiment: as above

B1: AT12-007 (antibody, V domains shown)
VH: QVQLEQSGAEVKKPGASVKVSCKVSGYTLTELSMHWVRQAPGKGLEWMGSFDPADGERLYAQKFQGRVIMSEDTSTDTAYMELSSLRSEDAAVYYCATAPRMTMFGVIMALDSWGQGTLVTVSS
VL: DIQMTQSPSTLSASLGDRVTITCRASQNINKYLAWYQQKPGKAPKLLIYKASNLQSGVPSRFSGSGSGTDFILTISSLQPDDFATYYCQQYTTYSAWTFGQGTNVDIKR
In the case of B1, the “relative binding, mutant vs wild type” value [1] is reported as 130%, the “relative binding, mutant vs wild type” value [2] is reported as 87% and the “relative binding, mutant vs wild type” value [3] is reported as 187%. The “IC50, HCVpp neutralization” value [4] was 0.26 µg/mL, the “IC90, HCVpp neutralization” value [4] was 9.41 µg/mL and the “IC50, HCVpp neutralization” value [5] was 1.87 µg/mL. For the same binder, the “IC90, HCVpp neutralization” value [5] was > 50 µg/mL, the “IC50, HCVpp neutralization” value [6] was > 50 µg/mL and the “IC90, HCVpp neutralization” value [6] was > 50 µg/mL. For the same binder, the “IC50, HCVpp neutralization” value [7] was 0.04 µg/mL, the “IC90, HCVpp neutralization” value [7] was 0.5 µg/mL and the “IC50, HCVpp neutralization” value [8] was 2.67 µg/mL. For the same binder, the “IC90, HCVpp neutralization” value [8] was > 50 µg/mL, the “IC50, HCVpp neutralization” value [9] was 1.42 µg/mL and the “IC90, HCVpp neutralization” value [9] was 21.7 µg/mL. The Kd [10] was 44 nM, the koff [10] was 0.00184 s⁻¹ and the Kd [11] was 3.8 nM. For the same binder, the koff [11] was 0.00019 s⁻¹.

B2: AT12-010 (antibody, V domains shown)
VH: QLQLVQSGAEVKKPGSSVKVSCKASGGTFTSYAINWVRQVPGQGLEWMGEISPVFGTTHYAQKFQGRLKITADESADTAYMELSSLRSDDTAVYYCGRDRAPRLCSGGRCHSPPDHWGQGTLVTVSS
VL: DIQMTQSPSSVSASVGDRVTITCRASQGFGNWLAWYQQKPGRAPKLLIFGASTLQNGVPSRFSGSASGTDFTLTITSLQPEDFATYYCLQTNTFPYTFGQGTKVEIKR
In the case of B2, the “relative binding, mutant vs wild type” value [1] is reported as 203%, the “relative binding, mutant vs wild type” value [2] is reported as < 10% and the “relative binding, mutant vs wild type” value [3] is reported as 217%. For the same binder, the “IC50, HCVpp neutralization” value [4] was 0.61 µg/mL, the “IC90, HCVpp neutralization” value [4] was 20.4 µg/mL and the “IC50, HCVpp neutralization” value [5] was > 50 µg/mL. The “IC90, HCVpp neutralization” value [5] was > 50 µg/mL, the “IC50, HCVpp neutralization” value [6] was > 50 µg/mL and the “IC90, HCVpp neutralization” value [6] was > 50 µg/mL. The “IC50, HCVpp neutralization” value [7] was 0.47 µg/mL, the “IC90, HCVpp neutralization” value [7] was 8.51 µg/mL and the “IC50, HCVpp neutralization” value [8] was 1.06 µg/mL. The “IC90, HCVpp neutralization” value [8] was > 50 µg/mL, the “IC50, HCVpp neutralization” value [9] was 1.41 µg/mL and the “IC90, HCVpp neutralization” value [9] was > 50 µg/mL. The Kd [10] was 39.3 nM, the koff [10] was 0.00142 s⁻¹ and the Kd [11] was 22.8 nM. For the same binder, the koff [11] was 0.00098 s⁻¹.

B3: AT15-009 (antibody, V domains shown)
VH: QVLLVQSGAEVKKPGSSVKVSCKASGGTFSTYAISWLRQAPGQGPEWMGGIVPMFGITNYAQHFQGRITITADKSTSTAYMELSSLGSEDTAVYFCARDLRSGGTFFSRGFDLWGPGTKVTVSS
VL: EIVLTQSPGTLSLSPGERATLSCRASQSVSSSFLTWYQQKPGQAPRLLIFDASTRATGVPDRFSGSGSGTDFTLTISRLEPEDFGVYYCQQFDSSPTFGGGTKVEIK
With B3 the “relative binding, mutant vs wild type” value [12] was 57%, the “relative binding, mutant vs wild type” value [13] was 105% and the “relative binding, mutant vs wild type” value [14] was 27%. The “relative binding, mutant vs wild type” value [15] was 103%, the “relative binding, mutant vs wild type” value [16] was 87% and the “relative binding, mutant vs wild type” value [17] was 52%. The “relative binding, mutant vs wild type” value [18] was 106%, the “relative binding, mutant vs wild type” value [19] was 93% and the “relative binding, mutant vs wild type” value [20] was 82%.

B4: AT15-012 (antibody, V domains shown)
VH: QVQLVQSGAEVKKPGSSVKVSCKASGGNFNIFPITWVRQAPGQGLEWMGEIIPMLGTPEYAQKFQGRVTITADKSTGTAFMELSSLRSEDTAVYYCARTETTLPGTLFFVYYFHFWGQGTPVTVSS
VL: EIVMTQSPVTLSVSPGERAILSCRASQSVSSSLAWYQQKPGQAPRLLIYGASTRATGVPARFSGSGSGTEFTLTISSVQSEDYAIYFCQQYNDRPPWTFGQGTKVEIK
notes: also called AT15-12
B4 was tested, and the “relative binding, mutant vs wild type” value [12] was 83%, the “relative binding, mutant vs wild type” value [13] was 99% and the “relative binding, mutant vs wild type” value [14] was 60%. For the same binder, the “relative binding, mutant vs wild type” value [15] was 94%, the “relative binding, mutant vs wild type” value [16] was 82% and the “relative binding, mutant vs wild type” value [17] was 48%. The “relative binding, mutant vs wild type” value [18] was 67%, the “relative binding, mutant vs wild type” value [19] was 91% and the “relative binding, mutant vs wild type” value [20] was 77%.
